The results in this text go back to patent US20240279278A1, “NMU RECEPTOR 2 AGONISTS” (Boehringer Ingelheim International GmbH, priority 2023, published 2024).

The test deals with T1, human neuromedin U receptor 1 (human, UniProt Q9HB89 24-426).
T1 sequence (looked up): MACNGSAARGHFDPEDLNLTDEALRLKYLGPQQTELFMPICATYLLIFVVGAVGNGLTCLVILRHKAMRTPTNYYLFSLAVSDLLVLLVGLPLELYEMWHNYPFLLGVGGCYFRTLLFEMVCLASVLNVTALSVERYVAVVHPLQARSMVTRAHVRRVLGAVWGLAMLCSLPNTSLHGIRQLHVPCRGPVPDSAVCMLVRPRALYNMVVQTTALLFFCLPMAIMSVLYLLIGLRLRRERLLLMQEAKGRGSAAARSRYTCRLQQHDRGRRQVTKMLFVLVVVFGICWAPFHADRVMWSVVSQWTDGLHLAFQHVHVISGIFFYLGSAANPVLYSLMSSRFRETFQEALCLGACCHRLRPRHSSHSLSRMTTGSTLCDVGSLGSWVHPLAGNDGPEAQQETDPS
As to the kind of experiment: cell-based or functional assay.

B1: C20DA-gGlu3-Sar15-AEPipAc-Tyr-Phe-NMeLeu-Nle-Arg-Pro-Arg-Gly-NH2 (peptide)
peptide: EEEXXXXXXXXXXXXXXXXYFLXRPRG
HELM: PEPTIDE1{[O=C(O)CCCCCCCCCCCCCCCCCCC(=O)[*:2]].[gGlu].[gGlu].[gGlu].[Sar].[Sar].[Sar].[Sar].[Sar].[Sar].[Sar].[Sar].[Sar].[Sar].[Sar].[Sar].[Sar].[Sar].[Sar].[O=C(CN1CCN(CCN[*:1])CC1)[*:2]].Y.F.[meL].[Nle].R.P.R.G.[am]}$$$$V2.0
SMILES: CCCC[C@H](NC(=O)[C@H](CC(C)C)N(C)C(=O)[C@H](Cc1ccccc1)NC(=O)[C@H](Cc1ccc(O)cc1)NC(=O)CN1CCN(CCNC(=O)CN(C)C(=O)CN(C)C(=O)CN(C)C(=O)CN(C)C(=O)CN(C)C(=O)CN(C)C(=O)CN(C)C(=O)CN(C)C(=O)CN(C)C(=O)CN(C)C(=O)CN(C)C(=O)CN(C)C(=O)CN(C)C(=O)CN(C)C(=O)CN(C)C(=O)CC[C@H](NC(=O)CC[C@H](NC(=O)CC[C@H](NC(=O)CCCCCCCCCCCCCCCCCCC(=O)O)C(=O)O)C(=O)O)C(=O)O)CC1)C(=O)N[C@@H](CCCNC(=N)N)C(=O)N1CCC[C@H]1C(=O)N[C@@H](CCCNC(=N)N)C(=O)NCC(N)=O
Consider B1, for which the EC50 (hNMUR1) buffer stood at 220 nM.

B2: C20DA-gGlu3-Sar12-AEPipAc-Tyr-Phe-NMeLeu-Nle-Dbu-Pro-Arg-Gly-NH2 (peptide)
peptide: EEEXXXXXXXXXXXXXYFLXXPRG
HELM: PEPTIDE1{[O=C(O)CCCCCCCCCCCCCCCCCCC(=O)[*:2]].[gGlu].[gGlu].[gGlu].[Sar].[Sar].[Sar].[Sar].[Sar].[Sar].[Sar].[Sar].[Sar].[Sar].[Sar].[Sar].[O=C(CN1CCN(CCN[*:1])CC1)[*:2]].Y.F.[meL].[Nle].[Dab].P.R.G.[am]}$$$$V2.0
SMILES: CCCC[C@H](NC(=O)[C@H](CC(C)C)N(C)C(=O)[C@H](Cc1ccccc1)NC(=O)[C@H](Cc1ccc(O)cc1)NC(=O)CN1CCN(CCNC(=O)CN(C)C(=O)CN(C)C(=O)CN(C)C(=O)CN(C)C(=O)CN(C)C(=O)CN(C)C(=O)CN(C)C(=O)CN(C)C(=O)CN(C)C(=O)CN(C)C(=O)CN(C)C(=O)CN(C)C(=O)CC[C@H](NC(=O)CC[C@H](NC(=O)CC[C@H](NC(=O)CCCCCCCCCCCCCCCCCCC(=O)O)C(=O)O)C(=O)O)C(=O)O)CC1)C(=O)N[C@@H](CCN)C(=O)N1CCC[C@H]1C(=O)N[C@@H](CCCNC(=N)N)C(=O)NCC(N)=O
B2 gave an EC50 (hNMUR1) buffer of 1000 nM.

B3: C20DA-gGlu3-Sar15-AEPipAc-Tyr-Phe-NMeLeu-Nle-Arg-NMeAla-Arg-Gly-NH2 (peptide)
peptide: EEEXXXXXXXXXXXXXXXXYFLXRARG
HELM: PEPTIDE1{[O=C(O)CCCCCCCCCCCCCCCCCCC(=O)[*:2]].[gGlu].[gGlu].[gGlu].[Sar].[Sar].[Sar].[Sar].[Sar].[Sar].[Sar].[Sar].[Sar].[Sar].[Sar].[Sar].[Sar].[Sar].[Sar].[O=C(CN1CCN(CCN[*:1])CC1)[*:2]].Y.F.[meL].[Nle].R.[meA].R.G.[am]}$$$$V2.0
SMILES: CCCC[C@H](NC(=O)[C@H](CC(C)C)N(C)C(=O)[C@H](Cc1ccccc1)NC(=O)[C@H](Cc1ccc(O)cc1)NC(=O)CN1CCN(CCNC(=O)CN(C)C(=O)CN(C)C(=O)CN(C)C(=O)CN(C)C(=O)CN(C)C(=O)CN(C)C(=O)CN(C)C(=O)CN(C)C(=O)CN(C)C(=O)CN(C)C(=O)CN(C)C(=O)CN(C)C(=O)CN(C)C(=O)CN(C)C(=O)CN(C)C(=O)CC[C@H](NC(=O)CC[C@H](NC(=O)CC[C@H](NC(=O)CCCCCCCCCCCCCCCCCCC(=O)O)C(=O)O)C(=O)O)C(=O)O)CC1)C(=O)N[C@@H](CCCNC(=N)N)C(=O)N(C)[C@@H](C)C(=O)N[C@@H](CCCNC(=N)N)C(=O)NCC(N)=O
B3 yielded an EC50 (hNMUR1) buffer of 720 nM.
